Assay results reported in patent US20260216326A1 (PROMETHEUS BIOSCIENCES, published 2026).
Where a chain is given by its changes, count along the chain named. One block for each binder: values may come before it.

Biological target: T1, human TL1A (Fitzgerald #30R-AT070) (human, UniProt O95150 72-251, limits assumed)
T1 construct: Coated on the ELISA plate at 1 ug/mL; also called TNFSF15
T1 sequence (looked up): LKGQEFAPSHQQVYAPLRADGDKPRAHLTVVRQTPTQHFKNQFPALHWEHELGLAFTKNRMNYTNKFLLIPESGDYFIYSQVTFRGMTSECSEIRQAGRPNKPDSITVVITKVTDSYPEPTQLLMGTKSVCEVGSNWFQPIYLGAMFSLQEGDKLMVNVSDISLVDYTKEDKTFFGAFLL
Assay: ELISA titration, coated human TL1A, culture supernatant

B2: A30 (antibody, human IgG1, V domains shown)
VH: QVQLVQSGAEVKKPGASVKVSCKASGFDIQDTYMHWVKQRPGQGLEWIGRIDPASGHTKYDPKFQVRATITTDTSTSTAYLELSSLRSEDTAVYYCARSGGLPDVWGQGTTVTVSS
VL: EIVLTQSPGTLSLSPGERATLSCRASSSVSYMYWYQQKPGQAPRLLIYATSNLASGIPDRFSGSGSGTDFTLTISRLEPEDFAVYYCQQWKGNPRTFGGGTKLEIK
notes: human IgG1/kappa (pFuse vectors), culture supernatant
Kd: 0.077 nM

B3: A38 (antibody, human IgG1, V domains shown)
VH: B2 VH with A79V
VL: B2 VL with L13A, L21M, L45P, L46W, I57V, F70Y, L77V, K91S
notes: as for B2
Kd: 0.103 nM

B4: A41 (antibody, human IgG1, V domains shown)
VH: B2 VH with A68V
VL: B2 VL with L13A, L21M, L45P, L46W, I57V, F70Y, L77V, K91S
notes: as for B2
Kd: 0.016 nM

B7: A39 (antibody, human IgG1, V domains shown)
VH: B2 VH with L81M
VL: B2 VL with L13A, L21M, L45P, L46W, I57V, F70Y, L77V, K91S
notes: as for B2
Kd: 0.125 nM

B8: A43 (antibody, human IgG1, V domains shown)
VH: B2 VH with T72R
VL: B2 VL with L13A, L21M, L45P, L46W, I57V, F70Y, L77V, K91S
notes: as for B2
Kd: 0.051 nM

B11: A40 (antibody, human IgG1, V domains shown)
VH: B2 VH with A79V, L81M
VL: B2 VL with L13A, L21M, L45P, L46W, I57V, F70Y, L77V, K91S
notes: as for B2
Kd: < 0.05 nM

B12: A35 (antibody, human IgG1, V domains shown)
VH: B2 VH with R40A
VL: B2 VL with L13A, L21M, L45P, L46W, I57V, F70Y, L77V, K91S
notes: as for B2
Kd: 0.072 nM

B14: A130 (antibody, human IgG1, V domains shown)
VH: QVQLVQSGAEVKKPGASVKVSCKASGFDIQDTYMHWVRQAPGQGLEWMGRIEPASGHIKYDPKFQVRVTMTRDTSTSTVYMELSSLRSEDTAVYYCARSGGLPDWWGQGTTVTVSS
VL: B2 VL with L45P, L46W, K91E
notes: as for B2
Kd: 0.075 nM

B15: A142 (antibody, human IgG1, V domains shown)
VH: B2 VH with K38R, I48M, A68V, T72R
VL: B2 VL with K91E
notes: as for B2
Kd: 0.126 nM

B17: A145 (antibody, human IgG1, V domains shown)
VH: B14 VH with V66G, V79A
VL: B2 VL with L45P, K91E
notes: as for B2
Kd: 0.07 nM

B20: A146 (antibody, human IgG1, V domains shown)
VH: B14 VH with R38K, V66G
VL: B2 VL with L45P, K91E
notes: as for B2
Kd: 0.065 nM

B23: A147 (antibody, human IgG1, V domains shown)
VH: B14 VH with R38K, A40R, V66G
VL: B2 VL with L45P, K91E
notes: as for B2
Kd: 0.063 nM

B24: A128 (antibody, human IgG1, V domains shown)
VH: B2 VH with K38R, I48M, A68V, T72R
VL: B2 VL
notes: as for B2
Kd: 0.111 nM

B27: A119 (antibody, human IgG1, V domains shown)
VH: B14 VH with I58T, V66G
VL: B2 VL with L45P, L46W, K91E
notes: as for B2
Kd: 0.087 nM

B28: A153 (antibody, human IgG1, V domains shown)
VH: B14 VH with V66G, V79A
VL: B2 VL with L45P, L46W, K91E
notes: as for B2
Kd: 0.049 nM

B33: A138 (antibody, human IgG1, V domains shown)
VH: B14 VH with V68A
VL: B2 VL with K91S, G92R
notes: as for B2
Kd: 0.069 nM

B34: A136 (antibody, human IgG1, V domains shown)
VH: B14 VH with R38K, V66G
VL: B2 VL with L45P
notes: as for B2
Kd: 0.053 nM

B35: A134 (antibody, human IgG1, V domains shown)
VH: B14 VH with V68A
VL: B2 VL with L45P
notes: as for B2
Kd: 0.055 nM

B37: A129 (antibody, human IgG1, V domains shown)
VH: B2 VH with K38R, I48M, A68V
VL: B2 VL
notes: as for B2
Kd: 0.099 nM

B42: A150 (antibody, human IgG1, V domains shown)
VH: B14 VH with V66G, V68A
VL: B2 VL with L45P, K91E
notes: as for B2
Kd: 0.059 nM

B45: A149 (antibody, human IgG1, V domains shown)
VH: B14 VH with V68A
VL: B2 VL with L45P, K91E
notes: as for B2
Kd: 0.048 nM

Other lines, results leading:

Kd: 0.083 nM
B1: A118 (antibody, human IgG1, V domains shown)
VH: B14 VH with M48I, E52D, V66G
VL: B2 VL with L45P, L46W, K91E
notes: as for B2

Kd: < 0.05 nM
B5: A42 (antibody, human IgG1, V domains shown)
VH: B2 VH with I70M
VL: B2 VL with L13A, L21M, L45P, L46W, I57V, F70Y, L77V, K91S
notes: as for B2

Kd: 0.034 nM
B6: A37 (antibody, human IgG1, V domains shown)
VH: B2 VH with I48M
VL: B2 VL with L13A, L21M, L45P, L46W, I57V, F70Y, L77V, K91S
notes: as for B2

Kd: < 0.05 nM
B9: A36 (antibody, human IgG1, V domains shown)
VH: B2 VH with K38R, R40A
VL: B2 VL with L13A, L21M, L45P, L46W, I57V, F70Y, L77V, K91S
notes: as for B2

Kd: < 0.05 nM
B10: A34 (antibody, human IgG1, V domains shown)
VH: B2 VH with K38R
VL: B2 VL with L13A, L21M, L45P, L46W, I57V, F70Y, L77V, K91S
notes: as for B2

Kd: 0.058 nM
B13: A133 (antibody, human IgG1, V domains shown)
VH: B14 VH
VL: B2 VL with L45P
notes: as for B2

Kd: 0.066 nM
B16: A154 (antibody, human IgG1, V domains shown)
VH: B14 VH with R38K, V66G
VL: B2 VL with L45P, L46W, K91E
notes: as for B2

Kd: 0.085 nM
B18: A143 (antibody, human IgG1, V domains shown)
VH: B14 VH with V66G
VL: B2 VL with K91E
notes: as for B2

Kd: 0.057 nM
B19: A151 (antibody, human IgG1, V domains shown)
VH: B14 VH with V68A, M70I
VL: B2 VL with L45P, K91E
notes: as for B2

Kd: 0.112 nM
B21: A122 (antibody, human IgG1, V domains shown)
VH: B2 VH with K38R, T72R
VL: B2 VL
notes: as for B2

Kd: 0.062 nM
B22: A132 (antibody, human IgG1, V domains shown)
VH: B14 VH with V66G, V68A
VL: B2 VL with L45P
notes: as for B2

Kd: 0.085 nM
B25: A120 (antibody, human IgG1, V domains shown)
VH: B14 VH with I58V, V66G
VL: B2 VL with L45P, L46W, K91E
notes: as for B2

Kd: 0.108 nM
B26: A141 (antibody, human IgG1, V domains shown)
VH: B2 VH with K38R, I48M, A68V, T72R
VL: B2 VL with K91S, G92R
notes: as for B2

Kd: 0.074 nM
B29: A139 (antibody, human IgG1, V domains shown)
VH: B2 VH with K38R, I48M, A68V
VL: B2 VL with K91S, G92R
notes: as for B2

Kd: 0.091 nM
B30: A124 (antibody, human IgG1, V domains shown)
VH: B2 VH with K38R, A68V
VL: B2 VL
notes: as for B2

Kd: 0.104 nM
B31: A123 (antibody, human IgG1, V domains shown)
VH: B2 VH with K38R, A68V, T72R
VL: B2 VL
notes: as for B2

Kd: 0.056 nM
B32: A135 (antibody, human IgG1, V domains shown)
VH: B14 VH with V66G, V79A
VL: B2 VL with L45P
notes: as for B2

Kd: 0.07 nM
B36: A127 (antibody, human IgG1, V domains shown)
VH: B2 VH with I48M, A68V
VL: B2 VL
notes: as for B2

Kd: 0.123 nM
B38: A126 (antibody, human IgG1, V domains shown)
VH: B2 VH with I48M, A68V, T72R
VL: B2 VL
notes: as for B2

Kd: 0.058 nM
B39: A152 (antibody, human IgG1, V domains shown)
VH: B14 VH with V66G, V68A, M70I, R72T
VL: B2 VL with L45P, K91E
notes: as for B2

Kd: 0.116 nM
B40: A125 (antibody, human IgG1, V domains shown)
VH: B2 VH with I48M, T72R
VL: B2 VL
notes: as for B2

Kd: 0.067 nM
B41: A155 (antibody, human IgG1, V domains shown)
VH: B14 VH
VL: B2 VL with L45P, L46W, K91E
notes: as for B2

Kd: 0.073 nM
B43: A140 (antibody, human IgG1, V domains shown)
VH: B2 VH with K38R, I48M, A68V
VL: B2 VL with K91E
notes: as for B2

Kd: 0.05 nM
B44: A137 (antibody, human IgG1, V domains shown)
VH: B14 VH
VL: B2 VL with K91S, G92R
notes: as for B2

Kd: 0.106 nM
B46: A121 (antibody, human IgG1, V domains shown)
VH: B2 VH with K38R, I48M
VL: B2 VL
notes: as for B2
